Experiments:
[1] = biological target: T1, NGF (target of felinized anti-NGF antibodies mAb2 and mAb3); test: cell-based or functional assay
T1 chain: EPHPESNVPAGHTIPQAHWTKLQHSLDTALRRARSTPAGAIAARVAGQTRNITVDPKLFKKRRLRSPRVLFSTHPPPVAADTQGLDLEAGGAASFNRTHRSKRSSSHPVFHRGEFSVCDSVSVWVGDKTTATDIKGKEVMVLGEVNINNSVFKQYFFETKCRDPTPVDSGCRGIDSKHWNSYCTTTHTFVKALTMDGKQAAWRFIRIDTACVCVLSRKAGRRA

[2] = biological target: T2, Feline FcRn (complex of FcRn-α subunit and β-microglobulin, C-terminal His tag) (feline, UniProt A0ABI7ZNY9 23-296; Q5MGS7 21-118); test: SPR Biacore, FcRn amine-coupled on CM5, pH 7.2; pH 7.2; Table 2 run (FcRn amine-coupled on CM5)
T2 construct: treated here as one molecule
Experimental: (§1) Feline FcRn was isolated, prepared and mutant Fc IgGs were assayed against feline FcRn according to Strietzelg et. al. Standard RACE PCR was used to amplify feline FcRn-α subunit and β-microglobulin. FcRn-α subunit and β-microglobulin were co-transfected into HEK 293 cells and the FcRn complex was purified by IMAC affinity purification via the c-terminal His tag. KD's were measured by Biacore 3000 or Biacore T200 (GE Healthcare, Pittsburgh, PA, USA) using a CM5 sensor chip.
(§2) FcRn was immobilized on the surface of the sensor using the standard amine immobilization method to reach the desired surface density. HBS-EP was used as the immobilization running buffer and 10 mM MES; 150 mM NaCl; 0.005% Tween20; 0.5 mg/mL BSA; pH6 and pH7.2 and PBS; 0.005% Tween20; 0.5 mg/mL BSA; pH7.4 were used for method running buffers and titrations. Fc mutant IgGs were flowed over receptor surfaces and affinity was determined using Scrubber2 software analysis (BioLogic Software Pty, Ltd., Campbell, Australia) or T200 evaluation software (Table 2). Blank runs containing buffer only were subtracted out from all runs. Flow cells were regenerated using 50 mM Tris pH8. Runs were performed at 15° C.

[3] = biological target: T1, NGF (target of felinized anti-NGF …); test: SPR Biacore T200, target amine-coupled, 15 C
Experimental: Affinity for each mAb was assessed by Biacore and the IC50 was determined via a suitable cell based potency assay.
Flow cell 1 was used as an internal reference to correct running buffer effects. Antibody binding was measured at 15° C. with a contact time of 250 s and flow rate of 30 μl/min. The dissociation period was 300 s. Regeneration was performed with regeneration buffers (10 mM Glycine pH1.5 and 10 mM NaOH) and flow rate at 20 μl/min for 60 s each. Running/dilution buffer (1×HBS-EP, GE Healthcare, BR-1006-69, 10× including 100 mM HEPES, 150 mM NaCl, 30 mM EDTA and 0.5% v/v surfactant P20, pH7.4, 1:10 in filtered MQ H2O) was used as negative control at the same assay format.
Data were analyzed with Biacore T200 Evaluation software by using the method of double referencing. The resulting curve was fitted with the 1:1 binding model. No differences in binding affinities or IC50 were observed between wild-type and 5434 and 5428 mutant IgGs (Table 1).

[4] = biological target: T2, Feline FcRn (complex of FcRn-α subunit …); test: SPR Biacore, biotin-FcRn on SA chip, pH 6; pH 6; Table 5A run (biotin-FcRn on SA chip), ID 88
Experimental: Feline FcRn was isolated, prepared and mutant Fc IgGs were assayed against feline FcRn according to Strietzel et. al., discussed above. Standard PCR was used to amplify feline FcRn-α subunit and β-microglobulin. FcRn-α subunit and β-microglobulin were co-transfected into HEK 293 cells and the FcRn complex was purified by IMAC affinity purification via the c-terminal His tag. FcRn complex was biotin labeled through BirA enzymatic biotinylatoin reaction. KD's were measured by Biacore T200 (GE Healthcare, Pittsburgh, PA, USA) or Biacore 8K (Cytiva, Marlborough, MA, USA) using a SA sensor chip.
FcRn was captured on the surface of the sensor using a modified SA capture method. 10 mM MES; 150 mM NaCl; 0.005% Tween20; 0.5 mg/mL BSA; pH6 was used as capture, method running buffer and titrations. 1×HBS-P, 0.5 mg/mL BSA; pH7.4 was also used for method running buffer and titrations. Fc mutant IgGs were flowed over receptor surfaces and affinity was determined using T200 evaluation software or Biacore Insight Evaluation software. Blank runs containing buffer only were subtracted out from all runs. Flow cells were regenerated using 50 mM Tris pH8 or pH9. Runs were performed at 15° C.

[5] = biological target: T2, Feline FcRn (complex of FcRn-α subunit …); test: SPR Biacore, FcRn amine-coupled on CM5, pH 6; pH 6; Table 2 run (FcRn amine-coupled on CM5)
Experimental: as §1, §2

[6] = biological target: T2, Feline FcRn (complex of FcRn-α subunit …); test: SPR Biacore, FcRn amine-coupled on CM5, pH 6
Experimental: as §1, §2

[7] = biological target: T2, Feline FcRn (complex of FcRn-α subunit …); test: SPR Biacore, FcRn amine-coupled on CM5, pH 7.2
Experimental: as §1, §2

[8] = biological target: T2, Feline FcRn (complex of FcRn-α subunit …); test: SPR Biacore, biotin-FcRn on SA chip, pH 6
Procedure, shortened: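 Runs at 15° C used either pH 6 buffer (10 mM MES, 150 mM NaCl, 0.005% Tween20, 0.5 mg/mL BSA) or pH 7.4 buffer (1×HBS-P, 0.5 mg/mL BSA), with Fc mutant IgGs as analytes. Receptor was biotinylated feline FcRn complex (co-expressed in HEK 293) on an SA chip. Affinities from blank-subtracted SPR data.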

B1: mAb3 (felinized anti-NGF antibody ZTS-768) WT, feline IgG1a (antibody)
heavy: DVQLVESGGDLVKPGGSLRLTCVASGFTYSNYWMHWVRQAPGKGLQWVARIDPYGGGTKHNEKFKRRFTISRDNAKNTLYLQMNSLKTEDTATYYCVRSGYDYYFDVWGQGTLVTVSSASTTAPSVFPLAPSCGTTSGATVALACLVLGYFPEPVTVSWNSGALTSGVHTFPAVLQASGLYSLSSMVTVPSSRWLSDTFTCNVAHPPSNTKVDKTVRKTDHPPGPKPCDCPKCPPPEMLGGPSIFIFPPKPKDTLSISRTPEVTCLVVDLGPDDSDVQITWFVDNTQVYTAKTSPREEQFNSTYRVVSVLPILHQDWLKGKEFKCKVNSKSLPSPIERTISKAKGQPHEPQVYVLPPAQEELSRNKVSVTCLIKSFHPPDIAVEWEITGQPEPENNYRTTPPQLDSDGTYFVYSKLSVDRSHWQRGNTYTCSVSHEALHSHHTQKSLTQSPGK
light: EIQMTQSPSSLSASPGDRVTITCRASENIYSFLAWYQQKPGKVPKLLIYNANTLAEGVPSRFSGSGSGTDFTLTISSLEPEDAATYYCQHHFGTPFTFGSGTKLEIKRSDAQPSVFLFQPSLDELHTGSASIVCILNDFYPKEVNVKWKVDGVVQNKGIQESTTEQNSKDSTYSLSSTLTMSSTEYQSHEKFSCEVTHKSLASTLVKSFQRSECQRE
notes: The same holds for all IgG1a variants of mAb3; also called mAb3 WT; mAb3 ID No. 88
IC50 (cell based potency assay) [1]: 0.036 nM | Kd [2]: 8630 nM | Kd [3]: 0.000582 nM | Kd [4]: 26 nM | Kd [5]: 2.95 nM

B2: mAb3 (felinized anti-NGF antibody ZTS-768) S434H, feline IgG1a (antibody)
heavy: DVQLVESGGDLVKPGGSLRLTCVASGFTYSNYWMHWVRQAPGKGLQWVARIDPYGGGTKHNEKFKRRFTISRDNAKNTLYLQMNSLKTEDTATYYCVRSGYDYYFDVWGQGTLVTVSSASTTAPSVFPLAPSCGTTSGATVALACLVLGYFPEPVTVSWNSGALTSGVHTFPAVLQASGLYSLSSMVTVPSSRWLSDTFTCNVAHPPSNTKVDKTVRKTDHPPGPKPCDCPKCPPPEMLGGPSIFIFPPKPKDTLSISRTPEVTCLVVDLGPDDSDVQITWFVDNTQVYTAKTSPREEQFNSTYRVVSVLPILHQDWLKGKEFKCKVNSKSLPSPIERTISKAKGQPHEPQVYVLPPAQEELSRNKVSVTCLIKSFHPPDIAVEWEITGQPEPENNYRTTPPQLDSDGTYFVYSKLSVDRSHWQRGNTYTCSVSHEALHHHHTQKSLTQSPGK
light: EIQMTQSPSSLSASPGDRVTITCRASENIYSFLAWYQQKPGKVPKLLIYNANTLAEGVPSRFSGSGSGTDFTLTISSLEPEDAATYYCQHHFGTPFTFGSGTKLEIKRSDAQPSVFLFQPSLDELHTGSASIVCILNDFYPKEVNVKWKVDGVVQNKGIQESTTEQNSKDSTYSLSSTLTMSSTEYQSHEKFSCEVTHKSLASTLVKSFQRSECQRE
notes: also called mAb3 S434H; mAb3 ID No. 00
Kd [6]: 1.02 nM | Kd [7]: 0.524 nM | Kd [3]: 0.00132 nM | Kd [8]: 2.6 nM

Reference: patent US20260193335A1 (ZOETIS SERVICES, published 2026)
